According to the supplement of paper PMC10126150:
± gives the standard deviation of the averaged measurements.
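Note: ATP exposure 15 min at 22 °C before imaging.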

These sequences were tested on ATP (assay: switch fluorescence ratio, 500 uM ATP over buffer (Cy3 cluster intensity, sum of 5 cycles each) (fold (ratio)); higher = stronger signal-on switching upon ATP binding; sequences stand for … in TCGTCGGCAGCGTCAGATGTGTATAAGAGACAGTTTTTTTTTTTTTTTTTTTTTTTTT…TC). Settings: aptamer strand: ATP DNA aptamer (quencher-CACCTGGGGGAGTATTGCGGAGGAAGG + anchor), 100 nM annealed; ATP concentration: 500 uM.
Method in brief: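 For every switch-domain sequence, the fluorescence ratio is the mean of per-cluster values, each being summed target-cycle Cy3 intensity over summed buffer-cycle Cy3 intensity. Clusters outside 100-1000 RFU were excluded. On a modified Illumina MiSeq flow-cell, the Cy3-labelled switching-strand clusters were annealed to 100 nM quencher-labelled ATP aptamer, imaged in selection buffer and then after 15 min with 500 uM ATP at 22 °C. Five such cycles were run, with NaOH stripping and re-annealing between them.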
Work on AAAATTGACT yielded a switch fluorescence ratio of 1.002 ± 0.003. GGTATCGGAA showed a switch fluorescence ratio of 0.984 ± 0.055. Work on TTTTTTTATC yielded a switch fluorescence ratio of 1.01 ± 0.027. TACGGAGTCT showed a switch fluorescence ratio of 0.9814 ± 0.0075. With GGCTATTCCT the switch fluorescence ratio was 1.01 ± 0.0012. Sequence CTTGGGGGCC has a switch fluorescence ratio of 0.986 ± 0.012. Sequence AACGACGACG has a switch fluorescence ratio of 1.16 ± 0.05. With TAAACTGGTT the switch fluorescence ratio was 0.999 ± 0.029. With TGTTTTCGGA the switch fluorescence ratio was 1.01 ± 0.012. Work on TTGTGGGG yielded a switch fluorescence ratio of 0.992 ± 0.021. TTCCACGAAG was tested, and the switch fluorescence ratio was 0.996 ± 0.012. Sequence CAGTAAAGTG has a switch fluorescence ratio of 0.998 ± 0.017. ACAGATTCTA showed a switch fluorescence ratio of 0.984 ± 0.05. TGGATTGTGT gave a switch fluorescence ratio of 0.9735 ± 0.0032. In the case of GGGCAGGGGC, the switch fluorescence ratio is reported as 1 ± 0.025. With AGCGTCGCAG the switch fluorescence ratio was 0.9715 ± 0.0087. In the case of TAGTTCTGAG, the switch fluorescence ratio is reported as 0.998 ± 0.006. In the case of CCATCAGGG, the switch fluorescence ratio is reported as 1.16 ± 0.042. GCTTAACGTA gave a switch fluorescence ratio of 1.05 ± 0.044. CTTTGGTTG gave a switch fluorescence ratio of 1.01 ± 0.016. Sequence CACTTTTGTA has a switch fluorescence ratio of 1.01 ± 0.012. AGAAAGAGGA gave a switch fluorescence ratio of 0.987 ± 0.023. With GTTCTTCAGA the switch fluorescence ratio was 0.9705 ± 0.0056. In the case of TTCTGCTGCT, the switch fluorescence ratio is reported as 1.02 ± 0.02. CCAGGGGTAA was tested, and the switch fluorescence ratio was 1.17 ± 0.055. TACGATGGTT gave a switch fluorescence ratio of 0.989 ± 0.028. Sequence TTGGTGTAGC has a switch fluorescence ratio of 0.972 ± 0.026. Sequence GTGTACGGTG has a switch fluorescence ratio of 1.01 ± 0.013. For CCCTGGTGGG, the switch fluorescence ratio was 1.04 ± 0.11. In the case of GGGGGGCCGG, the switch fluorescence ratio is reported as 0.996 ± 0.033. With TGAGGTTAGG the switch fluorescence ratio was 1 ± 0.012. For GCGTGTATGA, the switch fluorescence ratio was 1.02 ± 0.033. For TTAACGGGGA, the switch fluorescence ratio was 1.02 ± 0.017. CATTAGATGC gave a switch fluorescence ratio of 1.06 ± 0.056. TGTATGTGGG was tested, and the switch fluorescence ratio was 0.999 ± 0.028. With CGCCATTGTT the switch fluorescence ratio was 1.01 ± 0.011. Sequence CGGCGCTAGG has a switch fluorescence ratio of 1.05 ± 0.045. CTGGTGACTG was tested, and the switch fluorescence ratio was 0.986 ± 0.096. Work on AAACGGCACG yielded a switch fluorescence ratio of 1.009 ± 0.0032. With TTGCGGGAAC the switch fluorescence ratio was 1.07 ± 0.063. Sequence TGATCGGCTA has a switch fluorescence ratio of 1.01 ± 0.049. TAATTTATCC was tested, and the switch fluorescence ratio was 1.022 ± 0.0095. In the case of GGGTCATGAT, the switch fluorescence ratio is reported as 1.01 ± 0.021. CGGTTTTTT was tested, and the switch fluorescence ratio was 1 ± 0.021. In the case of CGGTAAGGGC, the switch fluorescence ratio is reported as 0.966 ± 0.038. GAGATGCTGC was tested, and the switch fluorescence ratio was 1.05 ± 0.017. GGTGTTACTG was tested, and the switch fluorescence ratio was 1.03 ± 0.048. TATTGAGACT gave a switch fluorescence ratio of 0.989 ± 0.004. With GAATGGGGTG the switch fluorescence ratio was 1.02 ± 0.041. AAAACTAACG showed a switch fluorescence ratio of 1.1 ± 0.037. GATCTGGTAC showed a switch fluorescence ratio of 1.06 ± 0.037. Work on AAATACTTTT yielded a switch fluorescence ratio of 1.03 ± 0.021. TTGGGTTCAA showed a switch fluorescence ratio of 1.4 ± 0.52. With TCATTGAGCG the switch fluorescence ratio was 0.981 ± 0.04. Work on CACTAAATGT yielded a switch fluorescence ratio of 1 ± 0.035. In the case of GGGTGAAGGA, the switch fluorescence ratio is reported as 0.989 ± 0.042. Sequence TTATCGGTTT has a switch fluorescence ratio of 0.958 ± 0.019. TATTACCGTT was tested, and the switch fluorescence ratio was 1.006 ± 0.0076. For CTCAGTAGGC, the switch fluorescence ratio was 1.13 ± 0.066. In the case of TAGATGCAGT, the switch fluorescence ratio is reported as 1.04 ± 0.042. For TGTTTATGGG, the switch fluorescence ratio was 1.01 ± 0.033. For TAAAATCATT, the switch fluorescence ratio was 0.974 ± 0.035. Sequence AATTTTTTGG has a switch fluorescence ratio of 1 ± 0.046. Sequence GTTGGAATTT has a switch fluorescence ratio of 0.966 ± 0.023. In the case of ATGTGGTGTC, the switch fluorescence ratio is reported as 1.02 ± 0.015. TTTCGGAGGA gave a switch fluorescence ratio of 0.991 ± 0.018. TTTTACCTTG was tested, and the switch fluorescence ratio was 1.028 ± 0.01. With AAAATACGCT the switch fluorescence ratio was 1.16 ± 0.17. For TATAGGGTCA, the switch fluorescence ratio was 0.979 ± 0.031. Sequence ACATGTAGGA has a switch fluorescence ratio of 1 ± 0.032. TTCGAGTGTC gave a switch fluorescence ratio of 1.05 ± 0.034. With CAGCTGGGGT the switch fluorescence ratio was 1.01 ± 0.039. For CGTTGGAAGC, the switch fluorescence ratio was 0.982 ± 0.018. In the case of CACTGCTTTA, the switch fluorescence ratio is reported as 1.02 ± 0.037. GTGGTAACTT showed a switch fluorescence ratio of 1.007 ± 0.0082. ACACAAGGCT gave a switch fluorescence ratio of 1.03 ± 0.037. Sequence TAAGCCTGTT has a switch fluorescence ratio of 1 ± 0.021. GCAATTAAAG gave a switch fluorescence ratio of 1.12 ± 0.14. Work on TACGGCAAAT yielded a switch fluorescence ratio of 1.121 ± 0.01. For CAAGGCATTC, the switch fluorescence ratio was 1.32 ± 0.059. For CGGGCTTGG, the switch fluorescence ratio was 1.03 ± 0.021. Sequence TAGAGGGTAC has a switch fluorescence ratio of 1.19 ± 0.24. GGAGTTAGGG was tested, and the switch fluorescence ratio was 0.977 ± 0.011. TTCTAAATGT gave a switch fluorescence ratio of 0.9995 ± 0.0021. Sequence GCTATTGTTT has a switch fluorescence ratio of 0.9633 ± 0.0082.
